From PMC6385231, “Activity-Regulated Cytoskeleton-Associated Protein (Arc/Arg3.1) is Transiently Expressed after Heat Shock Stress and Suppresses Heat Shock Factor 1” (Scientific Reports, 2019) come the findings set out here.

For this test, the target named is T1, GST-tagged human HSF1 (human, UniProt Q00613 1-529).
T1 construct: Heat shock factor 1 (HSF1), human (hHSF1); The authors surmise that GST dimers induce HSF1 oligomerisation; also called GST-HSF1; GST-hHSF1
T1 sequence (looked up): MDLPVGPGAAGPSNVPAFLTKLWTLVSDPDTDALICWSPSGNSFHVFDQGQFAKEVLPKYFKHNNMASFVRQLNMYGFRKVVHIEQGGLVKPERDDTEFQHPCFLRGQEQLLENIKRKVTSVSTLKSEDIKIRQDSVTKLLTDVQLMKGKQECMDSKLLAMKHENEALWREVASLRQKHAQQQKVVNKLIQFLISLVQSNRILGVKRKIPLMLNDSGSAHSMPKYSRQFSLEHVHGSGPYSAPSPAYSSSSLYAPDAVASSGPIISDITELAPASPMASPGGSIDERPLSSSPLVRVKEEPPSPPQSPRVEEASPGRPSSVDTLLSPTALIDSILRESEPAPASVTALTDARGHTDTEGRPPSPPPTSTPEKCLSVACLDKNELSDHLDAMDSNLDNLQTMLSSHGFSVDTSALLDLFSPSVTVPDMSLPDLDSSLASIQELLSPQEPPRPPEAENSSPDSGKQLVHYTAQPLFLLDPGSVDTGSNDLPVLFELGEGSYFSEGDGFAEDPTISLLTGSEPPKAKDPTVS
Nature of the test: pull-down; GST or GST-hHSF1 on glutathione-agarose beads incubated with purified His-Arc in 20 mM MOPS pH 7.2, 100 mM KCl, 0.5% Tween, 2 μg/mL aprotinin, 3 h at 4°C; Western analysis with anti-GST and anti-Arc; with and without heat shock treatment. The following applies: both partners purified.

B1: His-tagged human Arc/Arg3.1 (natural protein, UniProt Q7LC44 1-396, looked up)
chain: MELDHRTSGGLHAYPGPRGGQVAKPNVILQIGKCRAEMLEHVRRTHRHLLAEVSKQVERELKGLHRSVGKLESNLDGYVPTSDSQRWKKSIKACLCRCQETIANLERWVKREMHVWREVFYRLERWADRLESTGGKYPVGSESARHTVSVGVGGPESYCHEADGYDYTVSPYAITPPPAAGELPGQEPAEAQQYQPWVPGEDGQPSPGVDTQIFEDPREFLSHLEEYLRQVGGSEEYWLSQIQNHMNGPAKKWWEFKQGSVKNWVEFKKEFLQYSEGTLSREAIQRELDLPQKQGEPLDQFLWRKRDLYQTLYVDADEEEIIQYVVGTLQPKLKRFLRHPLPKTLEQLIQRGMEVQDDLEQAAEPAGPHLPVEDEAETLTPAPNSESVASDRTQPE
notes: Arc/Arg3.1 (activity-regulated cytoskeleton-associated protein), human (hArc/Arg3.1); The construct and its purification are not described in the methods; also called His-Arc; His-Arc/Arg3.1; source: purified
Take B1: the binding result is on record as “binds”.
